From US20250353901A1 (ON TARGET MOLECULES BIOTECH, published 2025)

Biological target: T1, synthetic peptide HRCLQQLCCRKKPG
T1 construct: Variant of P2X7 residues 491-504, used as the counter-screen peptide; also called the wild type SNP at position 496 which is Q
T1 peptide: HRCLQQLCCRKKPG
Experiment: in-vitro cross-reaction of hybridoma monoclonal antibodies against the synthetic peptide
From the text: For the generation of monoclonal antibodies, hybridoma cell lines expressing the desired antibody were produced. Techniques for the production of monoclonal antibodies are well known in the art. Animals were presented with the carboxyl-terminal antigen sequence […] conjugated to KHL. Murine hybridoma cells were produced and screened according to standard protocols. Monoclonal antibodies harvested after clonal selection of the hybridomas expressed from the variable regions of the monoclonal antibodies raised against the antigen, were tested for their capacity to bind this antigen.

binding result: no binding
B1: Clone 3: 6H5.C10 Isotype Ig1 k (antibody, V domains shown)
VH: QVTLKESGPGILQPSQTLSLTCSFSGFSLSTFGMGVGWIRQPSGKGLEWLAHIWWDDYKYYNPALKSRLTISKDTSKNQVFLKIANVDTADTATYYCARISYYGSSYLDYWGQGTTLTVSS
VL: DVVMTQTPLSLPVSLGDQASISCRSSQSLVHSNGNTYLHWYLQKPGQSPKLLIYKVSNRFSGVPDRFSGSGSGTDFTLKISRVEAEDLGVYFCSQTTHVPYTFGGGTKLEIKR
notes: Murine hybridoma monoclonal antibody, isotype printed as 'Ig1 k'
